# Molecular target: T1, double-ring GroEL construct with the same labeling positions (255C/428C) (E. coli, UniProt P0A6F5 2-548; P0A6F5 2-548, 255C | 428C, AlexaFluor 488 and AlexaFluor 594 attached at the labeling positions 255 and 428 (cysteines))
# T1 construct: GroEL subunit, E. coli, with cysteines at the labeling sites E255 and D428; unmodified GroEL subunit, E. coli; GroEL has 14 subunits in two heptameric rings; That the remaining subunits are unmodified wild-type GroEL is surmised from 'the same reassembly procedure'; also called double-ring variant; double-ring construct; source: prepared using the same reassembly procedure as the labeled SR1 …
# Assay: intramolecular single-molecule FRET of one labeled subunit (conformational read-out); pulsed-interleaved excitation smFRET on diluted, freely diffusing labeled complexes; 1 mM ATP with a stoichiometric excess of GroES relative to GroEL (also with ADP-BeFx in place of ATP); about 22 °C
# Conditions: both partners purified
binder,measurement,value
"co-chaperone GroES (natural protein, E. coli, GroES, co-chaperone of GroEL, E. coli; a heptameric complex; Source and construct of GroES may stand in the supporting information; also called co-chaperonin GroES) MNIRPLHDRVIVKRKEVETKSAGGIVLTGSAAAKSTRGEVLAVGNGRILENGEVKPLDVKVGDIVIFNDGYGVKSEKIDNEEVLIMSESDILAIVEA",binding result,binds
